Each block holds one molecule with its values, some of them ahead of it.
Key:
[1] = system: Muc16; assay: Muc16 immunohistochemistry on treated OMP-PN13 tumors; format: in vivo, NOD/SCID mice; conditions: 3 doses of 10 mg/kg IP over 12 days; vs LZ1
Method: Frozen OMP-PN13 tumor cells that have been passaged twice in mice were obtained from Oncomed's tumor bank. They were thawed and injected subcutaneously into the left flank of NOD/SCID mice immediately following thawing. ˜ 25,000 viable cells were injected per animal. The mice were monitored weekly for tumor growth. After their onset, the size of the tumors was measured once weekly by caliper. 200-300 mm^3 tumor-bearing mice were dispatched in treatment groups that each contained 5 animals. […] Ab treatment was initiated the day after randomization. LZ1 was used as the negative control Ab. 3 doses of 10 mg/kg of Ab were administered via intra-peritoneal injection over a 12-day period. Mice were euthanized 24 hours after the last injection. Tumor, duodenum and liver were harvested.
Tumor tissues were fixed in formalin for paraffin embedding and sectioning. Muc16 detection was performed by immunohistochemical (1HC) to monitor the appearance of Mucin-producing cells. Mucins are specific for a subtype of differentiated cells in the pancreas, and as such are used as differentiation markers in the tumor model.
Formalin-fixed, paraffin-embedded (FFPE) sections were de-parrafinized. The slides were first de-parrafinized by sequential treatment with xylene twice for 5 minutes each. […]

[2] = system: Wnt signaling; assay: Inhibition of Wnt3a-induced Super Top Flash reporter activity in STF-293 cells; format: cell-based, human; conditions: for IC50: Wnt3a-conditioned medium, 20-0.0003 μg/ml, triplicate
Method: STF cells are Human Embryonic Kidney (HEK)-293 cells stably transfected with the Super Top Flash (STF) reporter cassette in which the expression of the Luciferase (Luc) reporter gene is regulated by multiple copies of the TCF binding site upstream of a minimal promoter. A low basal Luc expression can be induced 30-60 fold in response to Wnt3a, providing a large window to assess the inhibitory activity of the anti-Fzd Abs.
To assess the mAbs, STF-293 cells were grown in DMEM-10% FBS. On day 1, 10,000 cells were plated per well in 96-well Optical Bottom White plates (Nunc #165306). The cells were incubated O.N. at 37° C. and 5% CO2. On day 2, the Abs to be tested were diluted to a final concentration of […] using culture medium. Seven 5-fold serial dilutions were performed. The STF-293 cells culture medium was replaced with a mixture containing 50 μA Ab dilution, 25 μA Wnt3a-conditioned medium from Wnt3a stable L-cells and 25 μA DMEM-10% FBS. For each Ab, the final concentrations tested were 20, 4, 0.8, 0.16, 0.03, 0.006, 0.0013, 0.0003 μg/ml. Each Ab concentration was tested in triplicate. A human anti-hapten Ab, LZ1, was used as negative control Ab. A non-Wnt3a-conditioned medium from parental L-cells was used as negative control inducer. The plates were returned to the incubator. Luciferase activity was measured on day 3, using Promega Steady Glo kit (VWR #PAE2550-A) according to the manufacturer specifications. The results were expressed in photons per sec. GraphPad Prism software was used to graph and analyze the data. Luciferase activities were plotted as a function of Ab concentration to establish dose-response curves. A non-linear regression was applied to the numbers to fit the curve and calculate IC50s.

[3] = system: OMP-LU33 human lung tumors; assay: OMP-LU33 lung tumor xenograft growth; format: in vivo, NOD-SCID mice; conditions: antibodies 10 mg/kg IP twice per week
Method: 10,000 OMP-LU33 human lung tumor cells were injected subcutaneously in NOD-SCID mice. Tumors were allowed to grow for 30 days until they reached an average volume of 124 mm^3. The animals were randomized into 4 groups (n=10 per group) and treated with either control antibody (squares), Avastin® (triangles pointing down), anti-FZD 18R5 (triangles pointing up), or the combination of 18R5 plus Avastin® (circles).

[4] = system: OMP-C28 colon tumor xenografts; assay: OMP-C28 colon tumor xenograft growth; format: in vivo, NOD/SCID mice; conditions: 18R5 10 mg/kg IP twice weekly, single agent; p=0.02
Method: In another embodiment anti-FZD antibodies were analyzed for their ability to reduce the growth of OMP-C28 colon tumor xenografts. Dissociated human OMP-C28 cells (10,000 per animal) were injected subcutaneously into 6-8 week old male NOD/SCID mice. Tumor growth was monitored weekly and tumor measurements were initiated once tumors were palpable. On day 24 mice with average tumor volume of 129 mm^3 were randomized into 4 groups of 10 animals each. Animals were injected with either control antibody, or 18R5 IgG antibody (10 mg/kg), or irinotecan (7.5 mg/kg) or combination of both 18R5 and irinotecan. Administration of the antibodies and irinotecan was performed via injection into the intra-peritoneal cavity, twice weekly. Tumors were measured twice a week and tumor volume was determined using the formula ½(a×b^2); where a=length, and b=breadth. Data are expressed as mean and mean±S.E.M. Group means were compared using Student's two-tailed, unpaired t test.

IC50 relative to 18R5's [2]: 13 fold
IC50 [2]: 34.4 nM
B1: 44R24: anti-FZD5/8 IgG antibody, VH SEQ ID NO:85, VL SEQ ID NO:86; ATCC deposit no. PTA-10311 (antibody, V domains shown)
VH: EVQLVESGGGLVQPGGSLRLSCAASGFTFSSYYITWVRQAPGKGLEWVSTISYSSSNTYYADSVKGRFTISRDNSKNTLYLQMNSLRAEDTAVYYCARSIVFDYWGQGTLVTVSS
VL: DIELTQPPSVSVAPGQTARISCSGDALGNRYVYWYQQKPGQAPVLVIPSGIPERFSGSNSGNTATLTISGTQAEDEADYYCGSWDTRPYPKYVFGGGTKLTVLG
modifications: 44R24 VH; 44R24 VL
notes: ATCC deposit no; PTA-10311
Muc16 staining [1]: slightly higher than in the LZ1-treated tumors

B2: 18R5: human anti-FZD antibody; VH SEQ ID NO:10 (as 18R8), VL SEQ ID NO:14; binds FZD1, 2, 5, 7, 8 (antibody, V domains shown)
VH: EVQLVESGGGLVQPGGSLRLSCAASGFTFSHYTLSWVRQAPGKGLEWVSVISGDGSYTYYADSVKGRFTISSDNSKNTLYLQMNSLRAEDTAVYYCARNFIKYVFANWGQGTLVTVSS
VL: DIELTQPPSVSVAPGQTARISCSGDNIGSFYVHWYQQKPGQAPVLVIYDKSNRPSGIPERFSGSNSGNTATLTISGTQAEDEADYYCQSYANTLSLVFGGGTKLTVLG
modifications: 18R5/18R8 heavy chain variable region (VH); 18R5 light chain variable region (VL)
Muc16 staining [1]: higher levels of staining
xenograft tumor growth [3]: inhibits OMP-LU33 xenograft tumor growth
reduction in tumor growth [4]: 40%
IC50 [2]: 2.73 nM

From patent publication US8975044B2, “Polynucleotides encoding for frizzled-binding agents and uses thereof” (OncoMed Pharmaceuticals, Inc., priority 2008, dated 2015)
